By Kd is commonly meant the concentration at which binding is half-saturated. Low values mean higher affinity, high ones lower affinity.

Test [1] concerns the target T1, 161P2F10B protein (human, UniProt O14638 1-875).
T1 construct: 875 amino acid ORF cloned from kidney cancer patient specimens; Assayed on cells: recombinant on 3T3-161P2F10B cells, endogenous on Ku812/KU812, UGK-3 and RXF-393 cells; also called 161P2F10B antigen; cell surface 161P2F10B
T1 sequence: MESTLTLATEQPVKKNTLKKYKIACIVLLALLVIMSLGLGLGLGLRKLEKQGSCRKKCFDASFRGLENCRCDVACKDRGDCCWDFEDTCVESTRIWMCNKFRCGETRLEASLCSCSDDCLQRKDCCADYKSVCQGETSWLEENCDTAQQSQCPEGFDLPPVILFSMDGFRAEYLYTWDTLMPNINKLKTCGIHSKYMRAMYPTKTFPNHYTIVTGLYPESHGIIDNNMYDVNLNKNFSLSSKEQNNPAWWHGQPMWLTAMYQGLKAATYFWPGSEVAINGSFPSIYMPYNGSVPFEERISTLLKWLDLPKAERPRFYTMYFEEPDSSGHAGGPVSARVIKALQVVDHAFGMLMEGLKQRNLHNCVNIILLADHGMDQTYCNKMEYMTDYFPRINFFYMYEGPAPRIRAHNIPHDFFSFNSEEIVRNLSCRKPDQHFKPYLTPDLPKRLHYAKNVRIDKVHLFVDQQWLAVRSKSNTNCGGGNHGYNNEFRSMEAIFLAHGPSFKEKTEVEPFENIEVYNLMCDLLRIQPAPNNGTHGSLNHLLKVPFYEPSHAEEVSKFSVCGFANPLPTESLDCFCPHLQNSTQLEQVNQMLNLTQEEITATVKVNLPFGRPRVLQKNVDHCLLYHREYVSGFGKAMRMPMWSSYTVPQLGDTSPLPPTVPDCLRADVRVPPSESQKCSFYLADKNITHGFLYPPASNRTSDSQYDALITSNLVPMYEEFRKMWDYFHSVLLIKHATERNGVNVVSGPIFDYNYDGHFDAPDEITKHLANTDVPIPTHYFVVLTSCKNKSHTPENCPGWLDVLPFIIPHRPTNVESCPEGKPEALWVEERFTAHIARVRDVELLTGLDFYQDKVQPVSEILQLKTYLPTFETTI
In words: FACS saturation binding on KU812 cells, twelve dilutions, one site fit, n=4. As to the method:
H16-7.8 and H16-7.8mcMMAF were tested for their binding affinity to 161P2F10B expressed on KU812 cells (human chronic myelogenous leukemia cells, ATCC). Briefly, twelve (12) dilutions of H16-7.8 or H16-7.8mcMMAF were incubated with KU812 cells (50,000 cells per well) overnight at 4° C. at a final concentration of 160 nM to 0.004 nM. At the end of the incubation, cells are washed and incubated with anti-hIgG-PE detection antibody for 45 min at 4° C. After washing the unbound detection antibodies, the cells are analyzed by FACS.
MFI values were entered into Graphpad Prisim software and analyzed using the one site binding (hyperbola) equation of Y=Bmax*X/(Kd+X) to generate H16-7.8 and H16-7.8mcMMAF saturation curves. Bmax is the MFI value at maximal binding of H16-7.8 or H16-7.8mcMMAF to KU812; Kd is H16-7.8 or H16-7.8mcMMAF binding affinity which are the concentration of H16-7.8 or H16-7.8mcMMAF required to reach halfmaximal binding. […] (n=4).

In test [2] the target is T1, 161P2F10B protein. In words: FACS saturation binding on Ku812 cells, one site fit of MFI. As to the method:
FIG. 6. Cell Binding and Affinity of H16-7.8 and H16-7.8mcMMAF. H16-7.8 and H16-7.8mcMMAF were tested for the binding affinity to 161P2F10B endogenously expressed on Ku812 cells. Briefly, eleven (11) dilutions of H16-7.8 or H16-7.8mcMMAF were incubated with Ku812 cells (50,000 cells per well) overnight at 4° C. at a final concentration of 160 nM to 0.0001 nM. At the end of the incubation, cells were washed and incubated with anti-hIgG-PE detection antibody for 45 min at 4° C. After washing the unbound detection antibodies, the cells were analyzed by FACS. Mean Florescence Intensity (MFI) values are obtained (See, Table IV). MFI values were entered into Graphpad Prisim software and analyzed using the one site binding (hyperbola) equation of Y=Bmax*X/(Kd+X) to generate H16-7.8 or H16-7.8mcMMAF saturation curves shown in FIG. 6. […]
H16-7.8 and H16-7.8mcMMAF were tested for the binding affinity to 161P2F10B endogenously expressed on Ku812 cells. […] After washing the unbound detection antibodies, the cells are analyzed by FACS. […] MFI values were entered into Graphpad Prisim software and analyzed using the one site binding (hyperbola) equation of Y=Bmax*X/(Kd+X) to generate H16-7.8 or H16-7.8mcMMAF saturation curves shown in FIG. 6. […]

Test [3] has as its target T1, 161P2F10B protein. Nature of the test: cell-based or functional assay.

B1: H16-7.8mcMMAF (antibody, V domains shown)
VH: QVQLQESGPGLVKPSQTLSLTCTVSGGSISSGGYYWSWIRQHPGKGLEWIGIIYYSGSTYYNPSLKSRVTISVDTSKNQFSLKLNSVTAADTAVFYCARVAIVTTIPGGMDVWGQGTTVTVSS
VL: EIVLTQSPDFQSVTPKEKVTITCRASQSIGISLHWYQQKPDQSPKLLIKYASQSFSGVPSRFSGSGSGTDFTLTINSLEAEDAATYYCHQSRSFPWTFGQGTKVEIKR
modifications: mcMMAF on the cysteine of peptide S208FNRGEC214 in part of the chains (0 or 1 drug per L chain); mcMMAF (maleimidocaproyl-monomethyl auristatin F) on cysteine thiols after partial reduction; predominantly 2 drugs on the hinge peptide C225-K250; 0 to 5 drugs per H chain observed; overall DAR 4.0
notes: a mixture of drug loadings, predominant species 4 drugs; also called H16-7.8mcMMAF ADC; ADC H16-7.8mcMMAF
Molecule B1 registered a Kd in the test with 161P2F10B protein [1] of 0.25 nM. Moreover, the Kd in the test with 161P2F10B protein [2] was 0.19 nM. In the test with 161P2F10B protein [3], the “IC 50, inhibition of proliferation of KU812 cells (Alamar blue, 6 days), Lot (1)” value came out at 0.2 nM; the “IC 50, inhibition of proliferation of KU812 cells (Alamar blue, 6 days), Lot (2)” value stood at 0.1 nM; the “Specific cytotoxicity activity on KU812 cells, IC50 (Alamar Blue, 6 days)” value was 0.15 nM.

B2: 161P2F10B MAb H16-7.8 (antibody, V domains shown)
VH: QVQLQESGPGLVKPSQTLSLTCTVSGGSISSGGYYWSWIRQHPGKGLEWIGIIYYSGSTYYNPSLKSRVTISVDTSKNQFSLKLNSVTAADTAVFYCARVAIVTTIPGGMDVWGQGTTVTVSS
VL: EIVLTQSPDFQSVTPKEKVTITCRASQSIGISLHWYQQKPDQSPKLLIKYASQSFSGVPSRFSGSGSGTDFTLTINSLEAEDAATYYCHQSRSFPWTFGQGTKVEIKR
notes: Fully human IgG2 kappa from XenoMouse; also called native H16-7.8; recombinant H16-7.8
Turning to B2, the dissociation constant (Kd) was 0.08 nM with 161P2F10B protein [1] and 0.06 nM with 161P2F10B protein [2].

These data come from patent US20190328898A1 (AGENSYS, published 2019).
